Here are results for eight molecules from patent US20150266963A1 (ARGEN X B V, published 2015).

Residue numbers refer to the chain shown, from its start. Where two headings read alike, the source gives them in different places.

Assay [1] deals with T1, recombinant human CD70 (Flag-TNC-CD70) (human, UniProt P32970 39-193).
T1 construct: extracellular domain; Captured by anti-Flag mAb in ELISA; as 'recombinant human CD70' immobilised on Biacore CM5 chips; TNC is for trimerisation; also called recombinant CD70; human recombinant CD70; not shown: Flag tag and TNC trimerisation domain
T1 sequence (looked up): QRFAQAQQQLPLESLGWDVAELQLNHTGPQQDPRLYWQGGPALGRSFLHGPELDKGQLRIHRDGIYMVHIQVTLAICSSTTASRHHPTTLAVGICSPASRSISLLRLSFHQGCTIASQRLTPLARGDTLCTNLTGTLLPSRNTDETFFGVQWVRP
Put plainly: inhibition ELISA; Flag-TNC-CD70 captured by anti-Flag mAb; competitor CD27-Fc. On the procedure: (§1) From selected phage transfected into TG1, individual colonies were picked randomly for growth in 96 well plates. After IPTG induction according to standard protocols periplasmic fractions (penis) containing Fabs were prepared. […] In this assay, Flag-TNC-CD70 is captured by an anti-Flag mAb and binding of CD27-Fc is detected via a biotinylated anti-CD27 mAb and strep-HRP in the absence or presence of CD70 Fabs (FIGS. 2 and 3) or CD70 mAbs (FIG. 4). In FIG. 2B it can be seen that 27B3, which has an identical VH as 9D1, but contains a somewhat different light chain, seems to block binding of CD27 to CD70 more efficiently, which was in line with the better off rate of this Fab as measured on Biacore (data not shown). Table 3 indicates the blocking potency (expressed as IC50) for the various llama-human chimeric mAbs tested in the CD70 inhibition ELISA. […] FIG. 3 is a composite of an experiment testing llama CD70 Fabs for blocking activity (in the inhibition ELISA, see white bars) and for CD70 binding (binding ELISA, black bars). For the binding ELISA, Flag-TNC-CD70 is captured by an anti-Flag mAb and binding of the Fabs is detected using an anti-myc-HRP mAb, which recognizes the MYC tag fused to the C-terminus of the Fd fragment. For comparison purposes, known monoclonal antibodies to CD70 (SGN70 described in US 2010/0129362 A1, clone 1F6; and MDX69A7 described in WO2008/074004 FIGS. 5A and 5B) were tested in parallel. […] Of interest is clone 59D10, which as Fab has no blocking activity, but when converted into a chimeric IgG was antagonistic (see Table 3). Amino acid sequences of the VH and VL domains of binding and blocking llama-derived Fab clones are shown elsewhere herein (Tables 6-9).

Assay [2] has as its target T2, human CD70 expressed on the surface of cells (human, UniProt P32970 1-193).
T2 sequence (looked up): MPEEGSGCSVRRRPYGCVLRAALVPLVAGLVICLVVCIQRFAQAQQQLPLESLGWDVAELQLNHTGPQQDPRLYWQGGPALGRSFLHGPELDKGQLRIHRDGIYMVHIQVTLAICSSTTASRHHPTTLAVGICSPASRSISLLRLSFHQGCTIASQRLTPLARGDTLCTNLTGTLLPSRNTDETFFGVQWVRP
Put plainly: cell-based or functional assay.

Assay [3] has as its target T2, human CD70 expressed on the surface of …. Put plainly: flow cytometry on 786-O cells, anti-human Fc-FITC. As to the method: Fluorescence of 10,000 cells/condition was measured using a flow cytometer and the median fluorescence was plotted.
Assay [4] addresses T1, recombinant human CD70 (Flag-TNC-CD70). The assay is described as follows: inhibition ELISA; Flag-TNC-CD70 captured by anti-Flag mAb; competitor CD27-Fc. On the procedure: as §1
This is another data set of the same source. On the technique in general: An ELISA detects its analyte on a solid surface through an enzyme-linked reagent.

Assay [5] shares this target. Put plainly: Biacore; CD70 coated CM5 chip; Fab in periplasmic fraction. On the procedure:
Phage eluted from rounds 3, 4 and 5 of selection were transfected into TG1 and plated clonally; individual clones were picked randomly for further analysis. Periplasmic fractions containing Fabs were prepared from IPTG induced small scale cultures the off rate of each Fab was determined using a CD70 coated CM5 chip in a Biacore binding assay. Clones with Fab having off rates similar to that of 27B3 were sequenced.
For orientation: Surface plasmon resonance follows binding to a sensor surface in real time, without labels.

Assay [6] shares this target. The assay is described as follows: Biacore; recombinant human CD70 on CM5 chip; Fab injected. As to the method: Off-rates of the purified llama-derived anti-CD70 blocking Fabs were determined using the Biacore. Recombinant human CD70 was immobilized on a CM5 Biacore chip. The immobilization was performed in accordance with a method provided by Biacore and by using the NHS/EDC kit (Biacore AB): after activation of the chip, a solution of 50 μg/ml of recombinant CD70 in 10 mM acetate buffer with pH of 5 was prepared and 1 μl of this solution (50ng) was injected resulting in a surface density of approximately 1000 RU.
Fabs for the CD70 mAbs ARGX-110, MDX2H5 and SGN70 were prepared by […] digestion (SGN70 and MDX69A7 are described elsewhere herein, MDX2H5, also referred to as MDX1411, is described in WO2008/074004 FIGS. 1A and 1B). Fabs, at a concentration of approximately 100-400 μg/ml, were diluted 6-fold in hepes-buffered saline (0.1M Hepes, 1.5M NaCl, 30 mM EDTA, 0.5% v/v surfactant P20). They were injected (30 μl) and passed through the flow cells at a flow rate of 30 μl/min. After binding of the Fab to CD70, the off-rate was monitored for a period of 10 minutes. After the dissociation, the flow cell surfaces were regenerated by injecting 5 μl of 10 mM NaOH. Sometimes multiple injections of NaOH were needed to regenerate the surfaces depending on the affinity of the Fabs. Off-rate analysis was done by applying the BIAevaluation software. First, the sensogram of the blank runs were subtracted from those obtained with the coated flow cell. […] Moreover, the off-rate of CD27 for CD70 was determined as well.

The target of assay [7] is T2, human CD70 expressed on the surface of …. The assay is described as follows: cell-based or functional assay. This is another data set of the same source.
Assay [8] addresses T3, heat denatured recombinant CD70 (human, UniProt P32970 52-193, limits assumed).
T3 construct: Same recombinant CD70 as m1, denatured by heating for 5 minutes at 95 C and cooling on ice, coated directly on the plate; also called denatured CD70; not shown: Flag tag (anti-Flag mAb was the coating control) and further fusion parts
T3 sequence (looked up): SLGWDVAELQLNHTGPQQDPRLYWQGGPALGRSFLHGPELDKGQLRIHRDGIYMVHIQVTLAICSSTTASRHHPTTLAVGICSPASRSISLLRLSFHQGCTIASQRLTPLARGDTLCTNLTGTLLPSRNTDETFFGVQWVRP
Put plainly: ELISA on coated heat denatured recombinant CD70, anti-human IgG-HRP. As to the method: The binding of CD70 mAbs to denatured recombinant CD70 was assessed by ELISA. Recombinant CD70 was denatured by heating for 5 minutes at 95° C., followed by immediate cooling on ice for 5 minutes. A microtiter plate was coated with 5 μg/ml CD70 with or without denaturation. The plate was blocked and the CD70 mAbs for testing were applied at 10 μg/ml. After washing, binding of the mAbs was detected using anti-human IgG-HRP. As a positive control for the coating, instead of using the CD70 mAbs, an anti-Flag mouse-derived mAb was applied and detection was with anti-mouse-HRP. TMB was used as a substrate and OD at 620 nm was measured. […] Amongst the other mAbs, some are also binding to denatured CD70 (fe 5F4, 9G2, 57B6).

B1: 9D1 chimeric llama-human mAb (antibody, human IgG1, V domains shown)
VH: EVQLVESGGGLVQPGGSLRLSCAASGFTFSVYYMNWVRQAPGKGLEWVSDINNEGGTTYYADSVKGRFTISRDNAKNTLTLQMNSLKPEDTALYYCVRDAGYSNHVPIFDSWGQGTQVIVAS
VL: QAVVTQEPSLSVSPGGTVTLTCGLSSGSVTSSHYPGWYQQTPGQAPRLLIFNTNSRHSGVPSRFSGSISGNKAALTITGAQPEDEADYYCALLNIDDGSTMFGGGTHLTVLG
notes: also called mAb 9D1
For orientation: IC50 means the point on the concentration scale where inhibition reaches its midpoint. For orientation: EC50 (read off the curve) means the concentration needed to bring the measured effect to its halfway point. Read a low EC50 (read off the curve) as an effect from little substance. As to B1, the IC50 in assay [1] was determined as 0.109 mg/L; in assay [4] it was 0.73 nM. Moreover, the “IC50 (ng/ml), IL-8 secretion in Raji / HT1080-CD27 co-culture assay” value (“IC50 … in Raji / HT1080-CD27 co-culture assay” for short) in assay [2] amounted to 29 ng/mL. For the same molecule, in assay [3], the 50% effective concentration (EC50 (read off the curve)) is about 0.03 mg/L.

B2: 27B3 Fab (Fab, V domains shown)
VH: B1 VH
VL: QAVVTQEPSLTVSPGGTVTLTCGLKSGSVTSTNFPTWYQQTPGQAPRLLIYNTNTRHSGVPSRFSGSISENKAALTITGAQPEDEAEYFCALFISNPSVEFGGGTQLTVLS
notes: Llama-derived Fab; also called Fab 27B3
As a reminder, the koff is the rate constant with which the complex falls apart. As for B2, the koff in assay [5] amounted to 0.00014 s⁻¹; in assay [6] it was 8e-05 s⁻¹. Moreover, the IC50 in assay [4] is about 0.4 nM.

B3: 53H1 mAb (full-length human IgG1, HEK293) (antibody, V domains shown)
VH: B1 VH with A75S, T78S, T80Y, K87R, P88A, L93V, V97A, Q117L, I119T, A121S
VL: B2 VL with A2T, L10F, T11S, T32D, S62D, S69L, E70G, P82A, E83D, S111G
In the case of B3, the “Raji co-culture assay IC50 relative to 27B3” value in assay [7] is 1.6 fold of 27B3.

B4: 19G10 chimeric llama-human mAb (antibody, human IgG1, V domains shown)
VH: EVQLQESGGGVVQPGGSLRLSCAASGFTFDDYAMSWVRQAPGKGLEWVSSIYMYDSSTYYADSVKGRFTISTDNAKNTVYLQMNSLKSEDTAVYYCAKDINRSYGSSWSHFGPIFSSWGQGTQVTVSS
VL: NFMLTQPSAVSVSLGQTARITCQGGYYTHWYQQKPGQAPVLVIYVNNNRPSGIPERFSGSSSGNTATLTISGAQAEDEAAYYCQSGSSSTIPVFGGGTKLTVLG
Consider B4, for which the IC50 in assay [1] turned out to be 0.075 mg/L. For the same molecule, in assay [2], the “IC50 … in Raji / HT1080-CD27 co-culture assay” value came out at 16 ng/mL. In addition, the binding result in assay [8] is on record as “no binding (tested: 10 µg/ml (text))”.

B5: 9E1 chimeric llama-human mAb (antibody, human IgG1, V domains shown)
VH: B4 VH
VL: QAVVTQEPSLSVSPGGTVTLTCGLTSGSVTSSNYPDWYQQTPGQAPRLLIYNTNSRHSGVPSRFSGSISGNKAALTITGAQPEDEADYYCNLYMGSGGSKVFGGGTKLTVLG
On to B5, for which the IC50 in assay [1] was 1.4 mg/L. The “IC50 … in Raji / HT1080-CD27 co-culture assay” value in assay [2] amounted to 517 ng/mL. For the same molecule, in assay [8], the binding result is recorded as “no binding (tested: 10 µg/ml (text))”.

B6: 6D5 (antibody, V domains shown)
VH: EVQLVQPGAELRKPGASVKVSCKASGYTFTSYYIDWVRQAPGQGLEWMGRIDPEDGGTKYAQKFQGRVTFTADASTSTAYVELSSLRSEDTAVYYCASRRRDFDYWGQGTQVTVSS
VL: QSALTQPSAVSVSLGQTARITCQGGNARFSSFAWYQQKPGQAPVQVIYYNTNRPSGIPARFSGSSSGGAATLTISGAQAEDEADYYCQSYESGNYVFGGGTTLTVLG
notes: the mAb format of 6D5 is not described in the text; also called 6D5 mAb
B6: in assay [8], the binding result was “no binding (tested: 10 µg/ml (text))”.

B7: 4D2 chimeric llama-human mAb (antibody, human IgG1, V domains shown)
VH: QVQLQESGPGLVKPSQTLSLACTVSGGSITTSYYYWSWIRQPPGKGLEWMGAIGSRGSTYYSPSLKTRTSISRDTSKNQFTLQLSSVTPEDTAVYYCARVTGEITYNSGSYYYTLNLFDYWGQGTQVTVSS
VL: QSVLTQPPSLSASPGSSVRLTCTLSSGNSVGNYDISWYQQKAGSPPRYLLYYYSDSYKNQGSGVPSRFSGSKDPSANAGLLLISGLQAEDEADYYCSVSNSGTYKPVFGGGSKLTVLG
As for B7, the IC50 in assay [1] was found to be 0.254 mg/L. Also, in assay [2], the “IC50 … in Raji / HT1080-CD27 co-culture assay” value turned out to be 54 ng/mL. Besides, the “EC50 (read off the curve)” value in assay [3] was about 0.06 mg/L.

B8: 5F4 chimeric llama-human mAb (antibody, human IgG1, V domains shown)
VH: EVQVQESGGGLVHPGGSLKLSCAASGFTFDTYAMSWVRQAPGKGLEWVSAISWSGGETFYAESMKGRFTISRNNAKNTLYLQMNSLKSEDTAVYYCARGMGLAEGLTDWGQGTQVTVSS
VL: QAVVTHPPSLSASPGSSVRLTCTLISGDNIGGYDISWYQQKTGSPPRYLLYYYSDSYKHQSSGVPSRFSGSKDASANAGLLLISGLQSEDEADYYCSAYKSGSYKAPVFGGGTHLTVLG
In the case of B8, in assay [1], the IC50 is 0.296 mg/L. For the same molecule, the “IC50 … in Raji / HT1080-CD27 co-culture assay” value in assay [2] amounted to 32 ng/mL. Further, in assay [3], the “EC50 (read off the curve)” value is about 0.2 mg/L.
